The assay deals with integrin-associated protein (CD47/IAP) (human (endogenous in primary articular chondrocytes)).
Chain of integrin-associated protein (CD47/IAP) (human (endogenous in primary articular chondrocytes)) (Q08722 19-323): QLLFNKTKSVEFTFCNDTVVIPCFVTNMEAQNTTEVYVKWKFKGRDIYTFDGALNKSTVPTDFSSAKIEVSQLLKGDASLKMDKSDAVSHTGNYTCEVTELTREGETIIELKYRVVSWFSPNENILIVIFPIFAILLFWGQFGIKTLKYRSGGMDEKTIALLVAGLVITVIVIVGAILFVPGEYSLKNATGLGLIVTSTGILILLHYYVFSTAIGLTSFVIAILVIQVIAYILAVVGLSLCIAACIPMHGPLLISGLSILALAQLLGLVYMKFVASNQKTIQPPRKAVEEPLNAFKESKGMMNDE

Turning to “thrombospondin-1 (TSP-1) (from UniProt P07996 19-1170) (natural protein)”, the percentage change of membrane potential of normal chondrocytes after 20 min of 0.33 Hz mechanical stimulation in the presence of anti-CD47/IAP antibody Bric 126 (without antibody +21) amounted to 2%, the percentage change of membrane potential of osteoarthritic chondrocytes after 20 min of 0.33 Hz mechanical stimulation in the presence of anti-CD47/IAP antibody Bric 126 (without antibody -42) was -2% and the percentage change of membrane potential of osteoarthritic chondrocytes after 20 min of 0.33 Hz mechanical stimulation in the presence of anti-TSP-1 antibody (without antibody -42) worked out at 3%.

The values above are taken from paper PMC2374443.
